Data as given in patent US6825035, “Compositions and methods for modulating expression within smooth muscle cells” (Setagon, Inc.).

Molecular target: T1, Serum response factor (SRF) (UniProt D3ZHH8 D3ZHH8:1-504)
T1 sequence: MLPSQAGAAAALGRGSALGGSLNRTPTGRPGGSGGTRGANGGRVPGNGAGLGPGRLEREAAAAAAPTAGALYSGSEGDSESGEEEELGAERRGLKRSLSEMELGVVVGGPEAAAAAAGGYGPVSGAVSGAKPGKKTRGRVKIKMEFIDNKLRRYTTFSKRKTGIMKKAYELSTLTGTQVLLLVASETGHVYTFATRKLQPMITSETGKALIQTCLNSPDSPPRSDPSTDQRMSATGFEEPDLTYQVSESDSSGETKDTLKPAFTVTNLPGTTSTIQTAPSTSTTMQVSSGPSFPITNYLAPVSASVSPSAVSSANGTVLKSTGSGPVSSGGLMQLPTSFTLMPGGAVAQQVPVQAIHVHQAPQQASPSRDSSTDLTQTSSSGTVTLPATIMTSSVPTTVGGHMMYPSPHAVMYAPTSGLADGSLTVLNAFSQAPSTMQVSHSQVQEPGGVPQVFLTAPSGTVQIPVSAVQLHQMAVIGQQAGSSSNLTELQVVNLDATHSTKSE
Assay: EMSA; supershift with SRF antibody; binds more avidly than CArG A and B; 10 mM Tris pH 7.5, 100 mM KCl, 50 mM NaCl, 1 mM EDTA, poly(dI-dC), room temp
Conditions: protein: synthetic; tags: endogenous SRF in rat aortic SMC nuclear extract, identified by SRF antibody supershift; chain copies: 2; label: 32P end label
Method: 6.1.4 Preparation of Nuclear Extracts, In Vitro Synthesis of SRF, and Electromobility Shift Assays Nuclear extracts were prepared from confluent rat aortic SMCs using the methods of Dignam (Dignam J D, et al., *Nucleic Acids Res.* 1983;11:1475–1489). Culture conditions matched those used for transient transfection assays. Oligonucleotides used in EMSAs were purchased commercially (Operon Technologies) and include the following: CArG A, 5'-[…]-3' (SEQ ID NO:14); CArG B, 5'-[…]-3' (SEQ ID NO:15); Intronic CArG, 5'-[…]-3' (SEQ ID NO:16). Probes were ^32P end labeled and annealed. All probes were purified on a 6% acrylamide gel, eluted in TE, and precipitated twice in ethanol.
EMSAs were performed with 20 µl of binding reaction that included=30 pg of labeled probe, 5 µg of SMC nuclear extract 0.2 to 0.6 µg of poly (dI-dC) in 1×binding buffer (10 mM TrisHCl (pH 7.5), 100 mM KCI, 50 mM NaCl, 1 mM dithiothreitol, 1 mM EDTA, and 5% glycerol). Following a 30 min incubation at room temperature, the samples were subjected to electrophoresis on a 5% polyacrylamide gel, which had been pre-run at 170V for 1 hr. Electrophoresis was performed at 170V in 0.5×TBE (45 mM Tris Borate, 1 mM EDTA). Gels were dried and exposed to film for 24–72 h at −70 ° C. […]

B1: Intronic CArG (SM alpha-actin first intron) (dsDNA)
DNA 1: TTTTACCTAATTAGGAAATG
DNA 2: CATTTCCTAATTAGGTAAAA
B1: binds.
